The values below come from paper PMC9652331, “Cryo-EM structures of human m6A writer complexes”.

This data set has as its target HAKAI;WTAP;VIRMA;ZC3H13 (1106-1668);METTL3;METTL14 (Homo sapiens;Homo sapiens;Homo …, UniProt Q75N03;Q15007;Q69YN4;Q5T200;Q86U44;Q9HCE5 …, |||||). Put plainly: s4U UV crosslinking MS; sites METTL3 F321; VIRMA P140, E1597, F1706; EMSA: 5 nM FAM-RNA, 20 mM HEPES pH 7.5, 100 mM KCl, 10% glycerol, 1 mM DTT, 25 C, 20 min; 8% native PAGE in 1x TBE at 4 C; Kd from loss of free RNA, Hill fit, n. The following applies: protein: recombinant;recombinant;recombinant;recombinant;recombinant;recombinant, tags: untagged;N-6xHis;N-6xHis;N-Twin-Strep;N-GST-TEV, removed;N-6xHis-TEV. In general terms: A gel shift assay detects complexes by their altered migration in electrophoresis.

B1: s4U-ACTB-1 RNA (ssRNA)
RNA: GGCCCCUCCAUCGUCCACCGCAAAUGCUUCUAGGCGGACUAUGACUUAGUUGCGUUACACCCUUUCUUGACAAAACCUAACUUGCACAGAAAACA
modifications: 4-thiouridine (s4U); positions not given
Regarding B1, the binding result was “binds”.
